Paper PMC9798253 (Protein Science : A Publication of the Protein Society, 2023)

Target: MBP-tagged ADD domain of DNMT3A (476-614) (human, UniProt Q9Y6K1 476-614)
Assay: peptide or protein array

binding result: binds
Binder: EKSPGKLLVKMPFQT [TRD 214–228 peptide (WT, 15mer, E214-T228)]
